Data published in the supplement of paper PMC9170038.

Test system: MS2 coat protein
Experiment: apparent KD of MS2 coat protein; designed switch direction (-1 OFF switch, 1 ON switch): -1; higher = weaker reporter binding
Method in brief: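 Designed RNA switches with common flanks were made on Illumina chips by stalled E. coli RNA polymerase. Titration with SNAP-549-labelled MS2 coat protein doubled from 0.7 or 1.5 nM up to 3 µM. Apparent KD is each design's median over clusters after curve-fitting normalised fluorescence.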

[1] = Eterna round: R95, input ligand: FMN 200 uM
[2] = Eterna round: R95, input ligand: microRNA oligo, concentration not stated
[3] = Eterna round: R95, input ligand: none
[4] = input ligand: microRNA oligo, concentration not stated

Sequence | apparent KD of MS2 coat protein [2] [nM] | apparent KD of MS2 coat protein (input ligand: FMN 200 uM) [nM] | apparent KD of MS2 coat protein (input ligand: none) [nM] | also measured
GCGUGUGCCUAGGAUAUUGGGAAUAUGCAGAAACGAGAAGGAGGCACAUGAGGAUCACCCAUGUGAUGAAAAGA [Teesedri] (puzzle: Exclusion 6) | 45.6 |  |  | apparent KD of MS2 coat protein [1]: 16.7 nM; apparent KD of MS2 coat protein [3]: 61.7 nM
CCGCUACAUGAGGAUCACCCAUGUCAGGAUAUCGUACGUUCGUCGAAAGACGAUCGUACGAGAAGGGUGUGCGG [Eli x1 4.37] (Eterna round: R97, puzzle: Exclusion 1) |  | 169 | 155 | 
UCUUGUUGUCCGUGAGAAUACAUGAGGAUCACCCAUGUUAGUUUGAUUAUGAUGUGUAAGUUUGUUGCUCGUUUUAU [JR_STOV1_Sub070] (Eterna round: R97, puzzle: Sensor, turn-off variant 1) |  | 36.4 | 41.3 | 
CGGCAAAGGUAGGAUAUGCUAGACGAUAGUCUAGCAGAAGGACCUACAUGAGGAUCACCCAUGUGUCCAAGCCG [Mat - Exclusion 6 - Eli Mod - D19] (Eterna round: R97, puzzle: Exclusion 6) |  | 27.9 | 105 | 
GGGUAGUGAGGAUAUCGUUGUUAGGAGGAGUAGGUAGGAGGCGAGAAGGCACAUGAGGAUCACCCAUGUAUGAG [JR_Exclu4_Sub065] (puzzle: Exclusion 4) | 25.5 |  |  | 
AUGUGCACGCUGCGAUCCUACAUGAGGAUCACCCAUGUGGUCUGGUGGCGUGGGUCACCGGACUUGGCUCGUCUUGA [salish99_S_TOV1_R5_067] (Eterna round: R97, puzzle: Sensor, turn-off variant 1) |  | 117 | 128 | 
UAUCGCAAGCGAAGAUCCCACAUGAGGAUCACCCAUGUGCUCGUCUUAUAAGGUACUGUGACGAAAGUCACGGUACC [Sensor 3, v1 - 91 v15] (Eterna round: R97, puzzle: Sensor, turn-off variant 1) |  | 31.6 | 32.2 | 
GACUCACAUGAGGAUCACCCAUGUUAGGAUAUAACCUCAUCAACAACGAUUUGGGAGGUUAGAAGGGAUGAUGG [Eternabot (L1) Solution 80] (Eterna round: R97, puzzle: Exclusion 1) |  | 110 | 89 | 
UUUGUGUAAGGAUAUGCGAGCCACGGAAAUAAAACGUGGAGGUAGAAGGUACAUGAGGAUCACCCAUGUAAAAC [Mod of Anonveat 21 - Jieux - Exclusion 4] (Eterna round: R97, puzzle: Exclusion 4) |  | 54.8 | 30 | 
UAUGUCUCAGGAGGAUAUCUCCCGGUUGCCGUUAGAGAAGGCUUGAAACAUGAGGAUCACCCAUGUAAAUGGCCCGUCCUCCAA [Atsodibian] (Eterna round: R96, puzzle: Exclusion NG 1) |  | 15.4 | 14.7 | apparent KD of MS2 coat protein [4]: 9.77 nM
AGAUGCUUAAGUCGACAUGAGGAUCACCCAUGUACAGUUAACGAGGAUAUCCGAGAUAAAUAAUAGGAGAAGGCGUGAUCAUGA [Ex NG3 #2] (Eterna round: R96, puzzle: Exclusion NG 3) |  | 56.6 | 277 | apparent KD of MS2 coat protein [4]: 363 nM
AGUUGGCGAGGAUAUACAUGAGGAUCACCCAUGUGAAGAAGAAUAGUGAGGAAGAAAAGUAGAAGGCGCUGACA [Mat - Exclusion 3 - Mod of Salish D37] (Eterna round: R96, puzzle: Exclusion 3) |  | 412 | 48.5 | apparent KD of MS2 coat protein [4]: 33.6 nM
CAUGUGUAAGGAUAUGACAAUGGUAUCGAAAGAUACCAUUGUCAGAAGGUACAUGAGGAUCACCCAUGUGGAUC [Ex4-3: 18] (puzzle: Exclusion 4) | 199 |  |  | 
GUGUAACUACACGGGCUCAACAUGAGGAUCACCCAUGUCAUACACGCAAGCUUUUCGCUUGUCUUAUCUGUCCGUGA [Mainesleed] (puzzle: Sensor v3, turn-off variant 1) | 14.2 |  |  | apparent KD of MS2 coat protein [1]: 12.5 nM; apparent KD of MS2 coat protein [3]: 11.3 nM
CCUUAACAUGAGGAUCACCCAUGUGAGGAUAUGAUGCAGCAGUGGUCUACGCUGUGCAUCAGAAGGUACAUGGU (puzzle: Exclusion 1) | 38.9 |  |  | 
UGACAGGCUAGACGAACAAACAUGAGGAUCACCCAUGUCAUUCCAUGUCUGCGUCAUAAGUAGAUGCUCGUAUAUCG [Eternabot (Original) Solution 33] (Eterna round: R97, puzzle: Sensor, turn-off variant 1) |  | 16.6 | 18.1 | 
GAGGAACAUGAGGAUCACCCAUGUGAGGAUAUGCAUAGUGAGGUAGUAGACGUUGAAUGCAGAAGGUACACUGA [JR_Exclu1_Sub078] (puzzle: Exclusion 1) | 35.7 |  |  | 
AAGCGACGAGGAUAUCGGUGGCUGAACAUGAGGAUCACCCAUGUGAACCGAUGGCAGUGUCGAGAAGGUGUUGAGU [Teceenla] (puzzle: Exclusion 5) | 12.3 |  |  | 

Sequence | apparent KD of MS2 coat protein [2] [nM] | apparent KD of MS2 coat protein (input ligand: FMN 200 uM) [nM] | apparent KD of MS2 coat protein (input ligand: none) [nM] | also measured
GUAUAUAGUGUGAGGAUAUGCUGGUCCUUGGAUCAGCAGAAGGCACAUGAGGAUCACCCAUGUAGUUUAUUAUU [Mat - Exclusion 4 - JL Mod - D9] (puzzle: Brourd's mod of Exclusion 4) | 24.1 |  |  | 
UAUUAACAAGCGAGAUCCCACAUGAGGAUCACCCAUGUGCUCGUCUUAUAAGGUACUGUGACGAUAGUCACGGUACC [Mat - Sensor, turn-off var - Eli Mod - D3] (Eterna round: R97, puzzle: Sensor, turn-off variant 1) |  | 14.5 | 13.8 | 
GUGUAGUGAGGAUAUACAUGAGGAUCACCCAUGUGAAUAAGAUAGAAUAAGAUAAAGUGUAGAAGGUAUAGUGU [Excluse me!!! 17 - Jieux - Exclusion 3] (Eterna round: R96, puzzle: Exclusion 3) |  | 60.8 | 58.4 | apparent KD of MS2 coat protein [4]: 41.8 nM
CUUGUGUGAGGAUAUCAGUAGUAGUACGAUAGUAUUACUGCUGAGAAGGCACAUGAGGAUCACCCAUGUUCUUC [Exclusion 4 - Mod Omei Ex4 344 mod v.4] (puzzle: Exclusion 4) | 23.6 |  |  | 
UGAGACUGAGGAUAUACUGGCCCAUAAAGUGGGUCGUGGGUACAUGAGGAUCACCCAUGUAGAAGGCAGCCUCG [Omei Repeat Sequence v6] (Eterna round: R97, puzzle: Exclusion 2) |  | 656 | 55.4 | 
GAGUCCUUGGUGAGGAUAUGGCGAGGAGCACUUGUCCAGAAGGCACAUGAGGAUCACCCAUGUUCUAGUAAUUG [Eternabot (L2) Solution 75] (Eterna round: R97, puzzle: Brourd's mod of Exclusion 4) |  | 77.2 | 30.2 | 
AUACCAUGCCGCCUAAUAGCUUUUUGCCCGUCUUAUAAAACAUGAGGAUCACCCAUGUAAAACUCGUGGCGUGACCC [Quarre] (puzzle: Sensor v3, turn-off variant 2) | 21.9 |  |  | apparent KD of MS2 coat protein [1]: 156 nM; apparent KD of MS2 coat protein [3]: 195 nM
GGUCCGCAUGUCAGGAUAUACAUAUGGAUCAUAGAGUAGAAGGGACUUGAGGAUCACCCAAGUAACAAAAGAAG [Tiantere] (Eterna round: R97, puzzle: Brourd's mod of Exclusion 4) |  | 60.1 | 21.3 | 
CAUGGAUGUGAGCCGCAUUACAUGAGGAUCACCCAUGUCAACAAGCUUUUUGCUUGUCUUACGCGGCGGCAUCUAAA [Abebies] (puzzle: Sensor v3, turn-off variant 1) | 8.44 |  |  | apparent KD of MS2 coat protein [1]: 11.3 nM; apparent KD of MS2 coat protein [3]: 10.3 nM
UUGGAGAGAGGAUAUCCCUAGUUUAACAUGAGGAUCACCCAUGUGCGCGUCAAGUCGAAAGGAGAAGGUUCGGCGA [Eternabot (L1) Solution 5] (Eterna round: R97, puzzle: Exclusion 5) |  | 32.7 | 26.8 | 
GAAAAGGUAGGAUAUACGAAAAAAAAGGGUAGAAAAAAAACACAUGAGGAUCACCCAUGUAGAAGGACCAAGAG [salish99_ex2_r3_039] (puzzle: Exclusion 2) | 24.3 |  |  | apparent KD of MS2 coat protein [1]: 61.7 nM; apparent KD of MS2 coat protein [3]: 31.9 nM
GCUGGUCGAGGAUAUACAUGAGGAUCACCCAUGUGGUCACGUGACGAUAGUCACGAAUGUAGAAGGCGACCAGC [E3/3-A1] (Eterna round: R97, puzzle: Exclusion 3) |  | 66.9 | 161 | 
GGAGGGAAAGUGAGGAUAUCCGGAGGGAAACCUCCGGAGAAGGCACAUGAGGAUCACCCAUGUAAGGAAGGAGG [AK-MS2ROC-r4-Bmoexclusion4-1.1] (Eterna round: R97, puzzle: Brourd's mod of Exclusion 4) |  | 203 | 135 | 
UAGAUGGGAGGAUAUGCGUAGAUGCGGAUUCGUGUGGUGCUACAUGAGGAUCACCCAUGUAGAAGGCCCGUCUU [JL-ex2-2.26 Mayanne mod] (puzzle: Exclusion 2) | 13.5 |  |  | 
CAUACACAUGAGGAUCACCCAUGUGAGGAUAUGCGUACGUAAUCCGUAGGAGACGUGCGCAGAAGGCGCGAGGU [Mat - Mod of JL D94] (puzzle: Exclusion 1) | 38.7 |  |  | 
GCGCCAUCGUGAGAUGGCGUUUCGACAUGAGGAUCACCCAUGUAGGAUAUCGAUUGCUUUGCAGUCGAGAAGGGCGUGAUAAGU [JL ENG3 3.72] (Eterna round: R96, puzzle: Exclusion NG 3) |  | 104 | 98.2 | apparent KD of MS2 coat protein [4]: 74.4 nM
AAAUAGCUAGAGGAUAUUGGAUAGGAUUUAGUGCGAGAAGGCUAGACAUGAGGAUCACCCAUGUUGUGUUGGGA [EX6 #14] (Eterna round: R97, puzzle: Exclusion 6) |  | 82.3 | 50.3 | 
